T1: recombinant rat OMP (olfactory marker protein) (rat, UniProt P08523 1-163)
T1 construct: olfactory marker protein, rat, recombinant
T1 sequence (looked up): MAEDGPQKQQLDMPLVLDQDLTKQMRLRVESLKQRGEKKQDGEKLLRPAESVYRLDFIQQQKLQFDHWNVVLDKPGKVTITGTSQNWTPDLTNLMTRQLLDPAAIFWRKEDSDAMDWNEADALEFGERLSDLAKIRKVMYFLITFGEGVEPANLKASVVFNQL


Tests used:
Details in all cases: both partners purified
[1] = molecular target: T1, recombinant rat OMP (olfactory marker …); assay: SPR; data not shown; peptide immobilised on CM5 chip; OMP flowed over (0-500 nM by the methods), running buffer in the absence or presence of 0.1 mM Ca2+; interaction Ca2+-independent
[2] = molecular target: T2, Bovine calmodulin (bovine, UniProt P62157 1-149); assay: SPR; XIP peptide immobilised on CM5 chip (about 700 RU, carbodiimide chemistry); CaM 10, 25, 50, 100, 250 nM flowed over; Biacore 3000; running buffer NaCl 150 mM, HEPES 10 mM, CaCl2 0.1 mM, pH 7.4; 5 µl/min for 2 minutes; 1:1 Langmuir binding model
T2 construct: calmodulin, bovine, purchased from Sigma; the methods say bovine calmodulin purchased from Sigma; also called CaM; recombinant calmodulin (CaM); source: bought: Sigma

[3] = molecular target: T2, Bovine calmodulin; assay: SPR; Bex1 (50-75) peptide immobilised on CM5 chip; CaM 31.25, 62.5, 125, 250, 500 nM flowed over; running buffer with 0.1 mM Ca2+; steady-state analysis of equilibrium response, nonlinear 1:1 binding isotherm

Row | Kd [1] [nM] | Kd [2] [nM] | Kd [3] [nM] | Binder
1 | 700 | 20 ± 6 |  | RRLLFYKYVYKRYRAGKQRGM (Immobilised on a CM5 chip by carbodiimide chemistry; also called XIP regulatory-peptide of NCX; source: synthetic peptide, HPLC purified) [XIP peptide (NCX1 251-271)]
2 | 90000 ± 12000 |  | 280 | RGGRRRFRVRQPIAHYRWDLMQRVGE (Immobilised on a CM5 chip by carbodiimide chemistry; also called Bex1 peptide; Bex1 (50–75) peptide; source: synthetic peptide, HPLC purified) [CaM binding peptide of Bex1 (Bex1 50-75)]
